# Assay results from article PMC2275143 (Nucleic Acids Research, 2008).
# B1: Nep1 from Methanocaldococcus jannaschii (native protein) (enzyme, UniProt Q57977 2-205, looked up)
# chain: TYNIILAKSALELIPEEIKNKIRKSRVYKYDILDSNYHYKAMEKLKDKEMRGRPDIIHISLLNILDSPINHEKKLNIYIHTYDDKVLKINPETRLPRNYFRFLGVMEKVLKGERNHLIKMEEKTLEDLLNEINAKKIAIMTKTGKLTHPKLLKEYDTFIIGGFPYGKLKINKEKVFGDIKEISIYNKGLMAWTVCGIICYSLSF
# Molecular target: the molecule itself
# Test: AUC
protein,measurement,value
B1,stoichiometry N,2
